Earlier results on 1 substance are cited in patent US6835389B1, “Powder Composition for nasal administration” (Teijin Limited, priority 1998, dated 2004).

For the series the following is noted: 10 units of insulin to rabbits, nasal, Example 4 of Kokoku No. 62-42888.

Where only a bound is given, the exact number is not on record here.

With insulin, the “absorption rate calculated from the AUC” value is not above 10%, the maximum blood concentration is not above 200 μU/ml and the “maximum blood concentration relative to that of the injection administration” value is on record as “about 20%”.
